In the supplement of paper PMC10724198:
± gives the standard deviation of the averaged measurements.

Test system: Saccharomyces cerevisiae
Assay: protein stability index of tFT-peptide fusion (C-terminal peptide) (PSI (0-1 scale)); higher = more stable (slower turnover)
Conditions: genetic background: wild type; temperature: 30 C
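Note: PSI is a weighted mean of sequencing reads over stability bins, variants kept only with over 10 reads, mCherry proximal and sfGFP distal, peptide attached via GGGS linker.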

STLPPSRLSSPL
protein stability index: 0.638 ± 0.017

STLRGTTESERK
protein stability index: 0.665 ± 0.057

STLVHSDESQLA
protein stability index: 0.633 ± 0.092

STNLITPPITNI
protein stability index: 0.677 ± 0.011

STPLPPPTPLPA
protein stability index: 0.723 ± 0.029

STPPCRPFMADL
protein stability index: 0.619 ± 0.0035

STPSLPPPPPSS
protein stability index: 0.6806 ± 0.006

STSDAFLTFPLQ
protein stability index: 0.678 ± 0.051

STVSRHPSSPLP
protein stability index: 0.737 ± 0.039

SVAAGCGHGGGG
protein stability index: 0.657 ± 0.011

SVAGDEGDRLFR
protein stability index: 0.686 ± 0.022

SVALSSPSRYCS
protein stability index: 0.7137 ± 0.00077

SVEAGHVAERES
protein stability index: 0.732 ± 0.061

SVGGGGGAVGGG
protein stability index: 0.68 ± 0.007

SVGGGRWRYGGR
protein stability index: 0.662 ± 0.04

SVGGWIARTAIV
protein stability index: 0.661 ± 0.011

SVGHPAAVHHAR
protein stability index: 0.675 ± 0.068

SVGRPVACLFVH
protein stability index: 0.5115 ± 0.0019

SVLAIASVIGCL
protein stability index: 0.598 ± 0.032

SVLAVSFLSLLV
protein stability index: 0.636 ± 0.04

SVLVTASSFLYF
protein stability index: 0.649 ± 0.027

SVMWEARTEDGS
protein stability index: 0.756 ± 0.043

SVNHVDIANSIL
protein stability index: 0.647 ± 0.011

SVNWVWNSVFDR
protein stability index: 0.6826 ± 0.0024

SVPPPLSPPPPP
protein stability index: 0.668 ± 0.018

SVRWFLIGCGGA
protein stability index: 0.579 ± 0.048

SVSLVQRSVCLD
protein stability index: 0.71 ± 0.021

SVSMEGCVSVRG
protein stability index: 0.7009 ± 0.0036

SVSPLSSSTLTA
protein stability index: 0.65 ± 0.019

SVSSSVGRGLRV
protein stability index: 0.711 ± 0.014

SVVSWRGRNRSV
protein stability index: 0.864 ± 0.065

SVVVGTVFCRSW
protein stability index: 0.615 ± 0.015

SVWCRRRRVTNS
protein stability index: 0.5825 ± 0.0054

SVWCRWGWSDWG
protein stability index: 0.795 ± 0.051

SVWGIVWRGNIV
protein stability index: 0.704 ± 0.024

SVWLISPRPLSV
protein stability index: 0.5639 ± 0.0032

SVYCVLSRGNRL
protein stability index: 0.687 ± 0.1

SWAGGRWRRVPV
protein stability index: 0.658 ± 0.04

SWEIGHLLPGTD
protein stability index: 0.6671 ± 0.0048

SWFTHTQSVRCS
protein stability index: 0.515 ± 0.014

SWMDRGGAYSGI
protein stability index: 0.731 ± 0.11

SWPSLDLVSRMQ
protein stability index: 0.676 ± 0.038

TAKQDSGVSTPV
protein stability index: 0.732 ± 0.12

TAMNNGNSIHKL
protein stability index: 0.682 ± 0.041

TASKHINYKCLA
protein stability index: 0.711 ± 0.16

TATYCFNALRRS
protein stability index: 0.72 ± 0.052

TAVPPLFARTWQ
protein stability index: 0.6786 ± 0.0049

TCVRHKVQKSRE
protein stability index: 0.688 ± 0.058

TDWGLTPRGRVT
protein stability index: 0.777 ± 0.062

TEHLLTRGRRNT
protein stability index: 0.64 ± 0.032

TESGKEKLDVIS
protein stability index: 0.689 ± 0.007

TEYHIVTLPRRC
protein stability index: 0.625 ± 0.076

TFARMYRKGSED
protein stability index: 0.686 ± 0.0077

TFFSAPLLPSIP
protein stability index: 0.73783 ± 0.00011

TFLPAPSPTSPP
protein stability index: 0.724 ± 0.032

TFLRGSILLVSP
protein stability index: 0.617 ± 0.059

TFPHSWHISSVP
protein stability index: 0.677 ± 0.024

TFPPLLFVCSLL
protein stability index: 0.594 ± 0.0078

TGDNNRGKRDYD
protein stability index: 0.678 ± 0.024

TGKRADGGAEGG
protein stability index: 0.686 ± 0.0086

TGRAPGSDVLAS
protein stability index: 0.7139 ± 0.0029

TGREGARVGIGR
protein stability index: 0.687 ± 0.01

TGREWCFERGCW
protein stability index: 0.842 ± 0.14

TGRNIGRVKIYL
protein stability index: 0.665 ± 0.049

TGSRGPHRKPPD
protein stability index: 0.691 ± 0.0077

THFPFPVLFSLP
protein stability index: 0.592 ± 0.03

THSPSPTTAPIP
protein stability index: 0.688 ± 0.011

THTEWVQFIRWY
protein stability index: 0.733 ± 0.073

TIETKVNSKDDS
protein stability index: 0.735 ± 0.031

TIIPRHTFLPAP
protein stability index: 0.723 ± 0.036

TIKNKKRKPKKK
protein stability index: 0.702 ± 0.044

TILAGSSRGTLR
protein stability index: 0.659 ± 0.061

TINVWFARTNPD
protein stability index: 0.7403 ± 0.0048

TIQPSVTNPTLN
protein stability index: 0.686 ± 0.04

TIRKKKNRRNKE
protein stability index: 0.731 ± 0.016

TISEGMSGRRRR
protein stability index: 0.759 ± 0.013

TIVQNLEIVQAR
protein stability index: 0.648 ± 0.13

TIVSFYVRFLSG
protein stability index: 0.583 ± 0.15

TIWLTFGRTPQS
protein stability index: 0.731 ± 0.042

TKCGESRENARI
protein stability index: 0.681 ± 0.022

TKHRFPKYRYLG
protein stability index: 0.5868 ± 0.0011

TKILRGQKRRAA
protein stability index: 0.637 ± 0.1

TKKKNTKKNNNT
protein stability index: 0.67 ± 0.095

TKRKEKHKIIGK
protein stability index: 0.705 ± 0.046

TKRQTIEIIKKK
protein stability index: 0.809 ± 0.11

TLALQFPFKLLF
protein stability index: 0.653 ± 0.025

TLATHCDVHFTR
protein stability index: 0.734 ± 0.077

TLDKGRFSPAHL
protein stability index: 0.754 ± 0.049

TLDTICNTTKQR
protein stability index: 0.675 ± 0.047

TLFPPLCVFSFC
protein stability index: 0.587 ± 0.03

TLFSNILRSPHS
protein stability index: 0.696 ± 0.035

TLGALEVSVYET
protein stability index: 0.614 ± 0.0097

TLGLLPDVCVEL
protein stability index: 0.683 ± 0.021

TLGSSTPFPCFP
protein stability index: 0.716 ± 0.059

TLHEDVMFYSRM
protein stability index: 0.6843 ± 0.0067

TLKPTHAPSPPP
protein stability index: 0.672 ± 0.021

TLLSPRRHPFAR
protein stability index: 0.674 ± 0.022

TLLVLGLSWGLP
protein stability index: 0.618 ± 0.044

TLPEVELTRQPI
protein stability index: 0.747 ± 0.014

TLPPPPLSTPTL
protein stability index: 0.643 ± 0.1

TLPPPSLPPSSS
protein stability index: 0.652 ± 0.071
